*1 amine or outer side, *2 acyl side, *3 side chain or, on linkers, in order; H or OH if unused. Bridges are numbered along the chain shown (N, C = ends). Where no end group is shown, it is not given here. [ ]: non-standard residue; d: D form. TATA = O=C(CC[*:1])N1CN(C(=O)CC[*:2])CN(C(=O)CC[*:3])C1; 1Nal = N[C@@H](Cc1cccc2ccccc12)C(=O)O; 2Nal = N[C@@H](Cc1ccc2ccccc2c1)C(=O)O; Hyp = O=C(O)[C@@H]1C[C@@H](O)CN1; hArg = N=C(N)NCCCC[C@H](N)C(=O)O; Pip = O=C(O)[C@@H]1CCCCN1; Aze = O=C(O)[C@@H]1CCN1; βAla = NCCC(=O)O; Sar = CNCC(=O)O

The values that follow come from US20210269480A1 (published 2021).

The chains are these.
T1: human Nectin-4 (human, UniProt Q96NY8 32-349)
T1 construct: a Gly32-Ser349 FLAG construct is described only under the SPR assay; also called PVRL4
T1 sequence (looked up): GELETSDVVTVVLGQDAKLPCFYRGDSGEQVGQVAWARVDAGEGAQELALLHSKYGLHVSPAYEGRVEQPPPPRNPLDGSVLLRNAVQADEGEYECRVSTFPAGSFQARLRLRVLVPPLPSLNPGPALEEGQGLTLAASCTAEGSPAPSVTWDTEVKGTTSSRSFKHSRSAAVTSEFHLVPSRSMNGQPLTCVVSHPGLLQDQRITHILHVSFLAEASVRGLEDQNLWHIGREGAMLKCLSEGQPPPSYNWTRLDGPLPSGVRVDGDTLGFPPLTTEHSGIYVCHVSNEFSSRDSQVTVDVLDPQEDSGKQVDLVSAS

T2: Human Nectin-4 (residues Gly32-Ser349) with C-terminal FLAG tag, biotinylated (human, UniProt Q96NY8 32-349, randomly biotinylated with EZ-Link Sulfo-NHS-LC-LC-Biotin)
T2 construct: range 32-349; Captured through biotin on a streptavidin CM5 chip in the SPR assay; also called PVRL4; not shown: C-terminal FLAG tag
T2 sequence (looked up): T1 sequence (looked up)

B1: BCY7276 (peptide)
peptide: HDSCPFGCM[dK]SWSWPIWCA
modifications: linker 4-8-18 via TATA
B2: BCY7350 (peptide)
peptide: ACPF[dA]CMKNWSWPIWCTNK
modifications: linker 2-6-16 via TATA
B3: BCY7594 (peptide)
peptide: Ac-CPFGCMKNWSW[Aze]IWC
modifications: linker 1-5-15 via TATA
B4: BCY7281 (peptide)
peptide: ACPFGCMKNWSWPIWCTN[hArg]
modifications: linker 2-6-16 via TATA
notes: also called 80-09-02-T01-N003
B5: BCY7372 (peptide)
peptide: ACPFGCXKNWSWPIWCTNK
modifications: core CPFGC(Nle)KNWSWPIWC (printed (NIe)); TATA on 3 Cys
notes: also called 80-09-02-T01-N041
B6: BCY7393 (peptide)
peptide: Ac-CVTTSYDCWVTLGHCSRF
modifications: linker 1-8-15 via TATA
B7: BCY7370 (peptide)
peptide: AC[dA]FGCMKNWSWPIWCTNK
modifications: linker 2-6-16 via TATA
B8: BCY7592 (peptide)
peptide: Ac-CPFGCMKNWS[2Nal]PIWC
modifications: linker 1-5-15 via TATA
B9: BCY7391 (peptide)
peptide: Ac-CPFGCMKNWSWPIWCTNK
modifications: linker 1-5-15 via TATA
notes: also called 80-09-02-T01-N011
B10: BCY7521 (peptide)
peptide: XACPFGCMKNWSWPIWCA
modifications: N-terminal X = 44BPA (4,4-biphenylalanine); TATA on 3 Cys
notes: also called 80-09-02-N012
B11: BCY7275 (peptide)
peptide: HDSCPFGCM[hArg]SWSWPIWCA
modifications: linker 4-8-18 via TATA
B12: BCY7420 (peptide)
peptide: XACPFGCMKNWSWPIWCA
modifications: N-terminal X = 1-Nal; TATA on 3 Cys
notes: also called 80-09-02-N009
B13: BCY7342 (peptide)
peptide: ACPFGCMKNWSAPIWCTNK
modifications: linker 2-6-16 via TATA
notes: also called 80-09-02-T01-N012
B14: BCY7344 (peptide)
peptide: ACPFGCMKNWSWPAWCTNK
modifications: linker 2-6-16 via TATA
notes: also called 80-09-02-T01-N014
B15: BCY7357 (peptide)
peptide: ACPFGCMKAWSWPIWCTNK
modifications: linker 2-6-16 via TATA
notes: also called 80-09-02-T01-N027
B16: BCY7356 (peptide)
peptide: ACPFGCMANWSWPIWCTNK
modifications: linker 2-6-16 via TATA
notes: also called 80-09-02-T01-N026
B17: BCY7367 (peptide)
peptide: ACPFGCMKNWSWPIWC[dA]NK
modifications: linker 2-6-16 via TATA
B18: BCY7348 (peptide)
peptide: ACPFGCMKNWSWPIWCTNA
modifications: linker 2-6-16 via TATA
notes: also called 80-09-02-T01-N018
B19: BCY7354 (peptide)
peptide: ACPFACMKNWSWPIWCTNK
modifications: linker 2-6-16 via TATA
notes: also called 80-09-02-T01-N020
B20: BCY7347 (peptide)
peptide: ACPFGCMKNWSWPIWCTAK
modifications: linker 2-6-16 via TATA
notes: also called 80-09-02-T01-N017
B21: BCY7352 (peptide)
peptide: ACAFGCMKNWSWPIWCTNK
modifications: linker 2-6-16 via TATA
notes: also called 80-09-02-T01-N022
B22: BCY7346 (peptide)
peptide: ACPFGCMKNWSWPIWCANK
modifications: linker 2-6-16 via TATA
notes: also called 80-09-02-T01-N016
B23: BCY7595 (peptide)
peptide: Ac-CPFGCMKNWSW[Pip]IWC
modifications: linker 1-5-15 via TATA
B24: BCY7360 (peptide)
peptide: ACPFGCMK[dA]WSWPIWCTNK
modifications: linker 2-6-16 via TATA
B25: BCY7278 (peptide)
peptide: Q[hArg]WCAPLSDYWCNRICA
modifications: linker 4-12-16 via TATA
B26: BCY7591 (peptide)
peptide: Ac-CPFGCMKNWS[1Nal]PIWC
modifications: linker 1-5-15 via TATA
B27: BCY7359 (peptide)
peptide: ACPFGCM[dA]NWSWPIWCTNK
modifications: linker 2-6-16 via TATA
B28: BCY7421 (peptide)
peptide: XACPFGCMKNWSWPIWCA
modifications: N-terminal X = 2-Nal; TATA on 3 Cys
notes: also called 80-09-02-N010
B29: BCY7365 (peptide)
peptide: ACPFGCMKNWSWP[dA]WCTNK
modifications: linker 2-6-16 via TATA
B30: BCY7279 (peptide)
peptide: QKWCAPLSDYWCN[hArg]ICA
modifications: linker 4-12-16 via TATA
B31: BCY7280 (peptide)
peptide: QK(Ac)WCAPLSDYWCNRICA
modifications: linker 4-12-16 via TATA
B32: BCY7426 (peptide)
peptide: Q[dK]WCAPLSDYWCNRICA
modifications: linker 4-12-16 via TATA
B33: BCY7793 (peptide)
peptide: CPF[dD]CM[hArg]NWSTPIWC
modifications: linker 1-5-15 via TATA
notes: Bicyclic peptide cyclised with TATA
B34: BCY8123 (peptide)
peptide: {Ac-βAla}-[Sar][Sar][Sar][Sar][Sar]CP[1Nal][dD]CM[hArg]DWSTPIWC
modifications: linker 6-10-20 via TATA
notes: as for B33
B35: BCY8030 (peptide)
peptide: Ac-CP[1Nal][dD]CM[hArg]NWSTPIWC
modifications: linker 1-5-15 via TATA
notes: as for B33
B36: BCY8211 (peptide)
peptide: Ac-CP[1Nal][dD]CL[hArg]DWSTPIWC
modifications: linker 1-5-15 via TATA
notes: as for B33
B37: BCY7393 (peptide)
peptide: Ac-CVTTSYDCWVTLGHCSRF
modifications: linker 1-8-15 via TATA
notes: as for B33
B38: BCY7559 (peptide)
peptide: {Ac-βAla}-[Sar][Sar][Sar][Sar][Sar]CPF[dA]CM[hArg]NWSWPIWC
modifications: linker 6-10-20 via TATA
notes: as for B33
B39: BCY8122 (peptide)
peptide: {Ac-βAla}-[Sar][Sar][Sar][Sar][Sar]CP[1Nal][dD]CM[hArg]DWSTP[Hyp]WC
modifications: linker 6-10-20 via TATA
notes: as for B33
B40: BCY8120 (peptide)
peptide: {Ac-βAla}-[Sar][Sar][Sar][Sar][Sar]CP[1Nal][dD]CM[hArg]NWSTP[Hyp]WC
modifications: linker 6-10-20 via TATA
notes: as for B33
B41: BCY8121 (peptide)
peptide: {Ac-βAla}-[Sar][Sar][Sar][Sar][Sar]CP[1Nal][dD]CM[hArg]HWSTP[Hyp]WC
modifications: linker 6-10-20 via TATA
notes: as for B33
B42: BCY8038 (peptide)
peptide: Ac-CPF[dD]CL[hArg]NWSTPPWC
modifications: linker 1-5-15 via TATA
notes: as for B33
B43: BCY7391 (peptide)
peptide: Ac-CPFGCMKNWSWPIWCTNK
modifications: linker 1-5-15 via TATA
notes: Bicyclic peptide cyclised with TATA; also called 80-09-02-T01-N011
B44: BCY7392 (peptide)
peptide: Ac-QKWCAPLSDYWCNRIC
modifications: linker 4-12-16 via TATA
notes: as for B33
B45: BCY428 (peptide)
peptide: ACPFGCMKNWSWPIWCA
modifications: linker 2-6-16 via TATA
notes: Bicyclic peptide cyclised with TATA; also called 80-09-02-N002
B46: BCY7390 (peptide)
peptide: Ac-CPFGCMKNWSWPIWC
modifications: linker 1-5-15 via TATA
notes: Bicyclic peptide cyclised with TATA; also called 80-09-02-N008

One test concerns the target T1, human Nectin-4. The experiment in a line: FP competition, tracer SEQ ID NO 217. The method, then: Peptides were diluted to an appropriate concentration in assay buffer as described in the direct binding assay with a maximum of 5% DMSO, then serially diluted 1 in 2. […] Measurements were conducted as for the direct binding assay, however the gain was determined prior to the first measurement. Data analysis was in Systat Sigmaplot version 12.0 where the mP values were fit to a user defined cubic equation to generate a Ki value: […]
For orientation: Ki means the dissociation constant of the complex between target and ligand, obtained from inhibition or displacement. Lower therefore signals tighter binding. Turning to B1, the Ki is 326 nM. The molecule B2 showed a Ki of 10 nM.

As to B3, the Ki came to 73 nM. B4 displayed a Ki of 22.9 nM.

For the molecule B5, the Ki worked out at 72.6 nM. Regarding B6, the Ki worked out at 232 nM. As to B7, affinity was put at a Ki of 144 nM. This Ki is about 1.6-fold lower than that of the molecule before. The molecule B8 returned a Ki of 37.4 nM. On the same count and under the same terms, to B9 belongs 13.3 nM; to B10, 224 nM. For the molecule B11, the affinity, expressed as Ki, was 43.3 nM. As for B12, the affinity, expressed as Ki, was 63.6 nM.

Consider B13, for which the Ki was 310 nM. In the case of B14, the Ki worked out at 39.8 nM. With B15, the Ki was 45.2 nM. Still for that read-out and setting: then B16, with 43.4 nM. In turn, B17 registered a Ki of 26.3 nM.

The molecule B18 came in with a Ki of 20.6 nM.

Turning to B19, the affinity corresponds to a Ki of 884 nM. The same measure, in the same setting: to B20 belongs 36.1 nM. B21 returned a Ki of 132 nM. This Ki lies about 3.7-fold higher than the previous one. As for B22, the affinity, expressed as Ki, was 64.9 nM. This Ki is about 2-fold lower than that of the molecule before. In turn, B23 gave a Ki of 219 nM. Regarding B24, the Ki amounted to 68.2 nM. Compared with the last molecule, the Ki is about 3.2-fold lower. As to B25, the Ki was determined as 69 nM.

Regarding B26, affinity was put at a Ki of 180 nM. Compared with the last molecule, the Ki is about 2.6-fold higher. Same read-out and setting: then B27, with 160 nM. Still for that read-out and setting: to B28 belongs 28.5 nM; to B29, 282 nM.

B30 came in with a Ki of 44.4 nM. This Ki is about 6.4-fold lower than that of the molecule before. Same read-out and setting: then B31, with 219 nM; and B32, with 69 nM.

For another test, the target named is T2, Human Nectin-4 (residues Gly32-Ser349) …. In words: SPR (Biacore), biotinylated human Nectin-4 on streptavidin chip. For orientation: SPR reads the build-up and loss of mass on a sensor chip optically.
Method: Biacore experiments were performed to determine kₐ (M⁻¹s⁻¹), kd (s⁻¹), KD (nM) values of monomeric peptides binding to human Necin-4 protein (obtained from Charles River).
For analysis of peptide binding, a Biacore 3000 instrument was used utilising a CM5 chip (GE Healthcare). Streptavidin was immobilized on the chip using standard amine-coupling chemistry at 25° C. with HBS-N (10 mM HEPES, 0.15 M NaCl, pH 7.4) as the running buffer. Briefly, the carboxymethyl dextran surface was activated with a 7 minute injection of a 1:1 ratio of 0.4 M 1-ethyl-3-(3-dimethylaminopropyl) carbodiimide hydrochloride (EDC)/0.1 M N-hydroxy succinimide (NHS) at a flow rate of 10 μl/min. For capture of streptavidin, the protein was diluted to 0.2 mg/ml in 10 mM sodium acetate (pH 4.5) and captured by injecting 120 μl of streptavidin onto the activated chip surface. Residual activated groups were blocked with a 7 minute injection of 1 M ethanolamine (pH 8.5) and biotinylated Nectin-4 captured to a level of 1,200-1,800 RU. Buffer was changed to PBS/0.05% Tween 20 and a dilution series of the peptides was prepared in this buffer with a final DMSO concentration of 0.5%. The top peptide concentration was 100 nM with 6 further 2-fold dilutions. The SPR analysis was run at 25° C. at a flow rate of 50 μl/min with 60 seconds association and dissociation between 400 and 1,200 seconds depending upon the individual peptide. Data were corrected for DMSO excluded volume effects. All data were double-referenced for blank injections and reference surface using standard processing procedures and data processing and kinetic fitting were performed using Scrubber software, version 2.0c (BioLogic Software). Data were fitted using simple 1:1 binding model allowing for mass transport effects where appropriate.
The Kd is the constant that tells how readily two partners part at equilibrium. Read a high Kd as lower affinity. Regarding B33, the Kd turned out to be 47 nM. B34 returned a Kd of 2.66 nM. Still for that read-out and setting: to B35 belongs 1.71 nM; to B36, 7.32 nM.

Molecule B37 had a Kd of 1380 nM. In turn, B38 came in with a Kd of 14.9 nM. Molecule B39 yielded a Kd of 0.89 nM. In turn, B40 came in with a Kd of 0.67 nM. The Kd values of the last two molecules are within 1.5-fold of each other. For the molecule B41, the Kd was determined as 0.53 nM. The same measure, in the same setting: to B42 belongs 44.5 nM. In the case of B43, the Kd worked out at 59.8 nM. This Kd and that of the molecule before are within 1.5-fold of each other. In turn, B44 gave a Kd of 35.7 nM. This Kd is about 1.7-fold lower than that of the molecule before. B45 returned a Kd of 334 nM. Still for that read-out and setting: to B46 belongs 40.3 nM.
